Target: 4xSH3lig::Cas12a (SEQ ID NO: 187)
Assay: cell-based or functional assay

B1: VirD2::SH3dom (SEQ ID NO: 186) (other)
chain: MPDRAQVIIRIVPGGGTKTLQQIINQLEYLSRKGRLELQRSARHLDIPLPPDQIHELARSWVQETGTYDESQPDEERQQELTTHIIVSFPAGTSQVAAYAASREWAAEMFGSGAGGGRYNYLTAFHIDRDHPHLHVVVNRRELLGHGWLKISRRHPQLNYDALRIKMAEISLRHGIALDASRRAERGITERPITYAQYRRLEREQARQIRFEDADLEQSSPQGDHPEFSQPFDTSPFEASAGGPEDMPRPNNRQNESQVHLQEPAGVSNEAGVLVRVALETERLAQPFVSETILADDIGSGSSRVAEGRVESANRTPDIPRAATEAATHTTHDRQRRAKRPHDDDGGPSGAKRVTLEGIAVGPQANAGEQDGSSGGSSGGSMSGSKKRRIKQDAEYVRALFDFNGNDEEDLPFKKGDILRIRDKPEEQWWNAEDSEGKRGMIPVPYVEKYSGSGGSSGGSSGPLVRQAGTSRPSPPTATTRASTATDSLSATAHLQQRRGVLSKRPREDDDGEPSERKRERDERSKDGRGGNRR
For B1, the “increase of green shoots over the negative control, EF1α site” value was ~3 fold and the “increase of green shoots over the negative control, polyubiquitin site” value was ~2 fold.
